Molecular target: T1, PD1-Fc (UniProt Q15116)
T1 construct: PD-1 (programmed cell death protein 1); most likely the extracellular domain of human PD-1 on a human IgG Fc
Experiment: BLI; BLItz system; biotinylated 102c3 nanobody immobilised on SA2 biosensors, dipped in serial dilutions of PD1-Fc
Conditions: both partners purified

T1 sequence (Q15116 25-170): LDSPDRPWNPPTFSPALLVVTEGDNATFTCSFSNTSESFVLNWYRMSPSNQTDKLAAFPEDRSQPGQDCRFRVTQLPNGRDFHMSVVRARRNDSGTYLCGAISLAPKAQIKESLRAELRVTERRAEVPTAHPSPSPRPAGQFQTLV

binding result: binds
B1: nanobody 102c3 (anti-PD1 single-domain antibody, VHH), biotinylated (VHH)
VHH: EVQLVESGGGLVQAGKSLRLSCAASGSIFSIHAMGWFRQAPGKEREFVAAITWSGGITYYEDSVKGRFTISRDNAKNTVYLQMNSLKPEDTAIYYCAADRAESSWYDYWGQGTQVTVSS
notes: the whole synthesised fragment translates to MGSR...PQPDPSP; also called 102c3 nanobody; 102c3 VHH; source: E. coli BL21DE3-BirA, periplasm extract, purified (HIS Mag Sepharose Excel, dialysis against PBS); not shown: biotinylation signal, C-terminal, kept

From paper PMC8548718 (Frontiers in Molecular Biosciences, 2021)
